This passage reports Km results from publication PMC7864055, “Biochemical and biophysical analyses of hypoxia sensing prolyl hydroxylases from Dictyostelium discoideum and Toxoplasma gondii” (The Journal of Biological Chemistry, 2021).

Substrate in this data set: O=C(O)CCC(=O)C(=O)O
Nature of the data set: RapidFire SPE-MS of Skp1 hydroxylation, Michaelis-Menten fit. The data set is classed as biochemical, Dictyostelium discoideum. Conditions: cosubstrate, full-length DdSkp1 100 μM, Fe(II) 50 μM, L-ascorbate 1 mM, HEPES pH 7.6, 37 °C, atmospheric O2. The source says: RapidFire SPE-MS of Skp1 hydroxylation, Michaelis-Menten fit on DdPhyA

B1: DdPhyA (Dictyostelium discoideum) (protein)
chain: MDISNLPPHIRQQILGLISKPQQNNDESSSSNNKNNLINNEKVSNVLIDLTSNLKIENFKIFNKESLNQLEKKGYLIIDNFLNDLNKINLIYDESYNQFKENKLIEAGMNKGTDKWKDKSIRGDYIQWIHRDSNSRIQDKDLSSTIRNINYLLDKLDLIKNEFDNVIPNFNSIKTQTQLAVYLNGGRYIKHRDSFYSSESLTISRRITMIYYVNKDWKKGDGGELRLYTNNPNNTNQKELKQTEEFIDIEPIADRLLIFLSPFLEHEVLQCNFEPRIAITTWIY
notes: full-length aa 1-284, E. coli BL21 Gold (DE3), N-terminal His6-ZBasic tag cleaved by TEV, EDTA-treated to remove metal
What is called Km is the concentration of substrate that gives half-maximal velocity. With B1, the Michaelis constant (Km) was 36 ± 6 µM.
